For the test, the target named is vitronectin (VTN) (UniProt P04004). Description: SPR; Biacore T200; LNA043 (~3,000 RU), FN1 or VTN (~500 RU) amine-coupled to CM5; integrins as analytes 0.6–10 μM, single-cycle kinetics, 37 °C, 1× HBS-N, 0.005% Tween 20, 1 mM MgCl2, 1 mM CaCl2, 2 mM MnCl2; 1:1 binding fit.

These results are taken from paper PMC9800282.

Chain of vitronectin (VTN) (P04004 20-478): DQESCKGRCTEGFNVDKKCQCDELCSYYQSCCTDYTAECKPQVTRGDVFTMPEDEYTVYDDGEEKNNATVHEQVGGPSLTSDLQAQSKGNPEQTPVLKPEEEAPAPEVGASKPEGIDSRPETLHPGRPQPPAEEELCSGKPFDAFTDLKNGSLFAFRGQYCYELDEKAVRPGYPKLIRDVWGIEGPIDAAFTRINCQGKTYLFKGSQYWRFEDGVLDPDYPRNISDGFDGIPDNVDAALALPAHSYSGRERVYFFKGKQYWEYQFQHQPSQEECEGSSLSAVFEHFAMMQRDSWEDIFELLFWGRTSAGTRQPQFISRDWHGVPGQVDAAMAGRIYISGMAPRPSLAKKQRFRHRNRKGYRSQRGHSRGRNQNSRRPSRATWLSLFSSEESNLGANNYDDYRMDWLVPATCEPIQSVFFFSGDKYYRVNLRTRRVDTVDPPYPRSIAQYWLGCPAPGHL

As for “recombinant human αvβ3 integrin (from UniProt P06756 31-1048; P05106 27-718) (complex)”, the Kd was 997 nM.
